{
  "source": "patent US20160244728A1",
  "about": "“CULTURE METHOD FOR PLURIPOTENT STEM CELLS AND KIT AND MEDIUM FOR CULTURE OF PLURIPOTENT STEM CELLS USED THEREIN” (FUJIFILM Corporation, priority 2013, published 2016)",
  "key": {"[1]": {"experiment": "Evaluation of adsorbability with respect to culture dish", "format": "physicochemical", "conditions": "FIG. 1; for adsorbability with respect to the plate (in words): 0 to 200 pmol/cm^2 added, 2 hours at 37° C., compared with RCP-11", "experimental": "Each of the polypeptides obtained as above was diluted with a predetermined buffer such that they could be added to wells at a predetermined final concentration of 0 pmol/cm^2 to 200 pmol/cm^2. Thereafter, each of the polypeptides was added in an amount of 64 μL to a plasma-treated 96-well plate made of polystyrene (Tissue Culture-Treated, Falcon). Each of the polypeptides was allowed to adsorb onto the plate by being incubated for 2 hours at 37° C., and then the wells were washed twice with PBS, thereby obtaining surfaces coated with each of the polypeptides of RCP-1 to RCP-16.\nAmong the surfaces coated with each of the polypeptides obtained as above, the surfaces coated with RCP-1 and RCP-11 to RCP-16 were applied with 64 μL of a borate buffer and 64 μL of 1 N NaOH, followed by incubation for 24 hours at 80° C. and 100% humidity. After the resultant was air-cooled, 75 μL of a borate buffer was added to each well, and 50 μL of a reaction solution obtained by mixing OPA (o-phthalaldehyde: Wako Pure Chemical Industries, Ltd./methanol solution (160 mg/ml)) with N-acetyl-L-cysteine (NAC: Wako Pure Chemical Industries, Ltd.)/borate buffer solution (2 mg/ml) at a ratio of 1:100 (mass ratio) was further added thereto. After incubation for 30 minutes at 40° C., the fluorescence intensity thereof was measured by using an Envision Multilabel Counter (PerkinElmer Inc.) (excitation 355 nm/fluorescence 486 nm). A calibration curve was separately prepared from each of the polypeptide solutions so as to calculate the amount of the polypeptide adsorbed. In FIG. 1, a black rhombus indicates RCP-1, a black square indicates RCP-11, a black triangle indicates RCP-12, a black circle indicates RCP-13, a white rhombus indicates RCP-14, a white square indicates RCP-15, and a white triangle indicates RCP-16."}, "human iPS cells [2]": {"tested_on": "human iPS cells", "experiment": "Growth evaluation, growth curves over 8 days", "format": "cell-based", "conditions": "FIG. 2; 250 cells/well", "experimental": "The iPS cells collected in the same manner as in <Cell adhesiveness evaluation 1> were seeded into a 96-well plate, onto which RCP-1, RCP-11, and natural human vitronectin were adsorbed, at a ratio of 250 cells/well and cultured for 8 days in a 5% CO2 incubator at 37° C. The number of adhesive cells after different days of culture was measured in the same manner as in <Cell adhesiveness evaluation 1>, thereby obtaining growth curves. […] In FIG. 2, a black rhombus indicates a case using RCP-1, and a black square indicates a case using RCP-11."}, "human iPS cells [3]": {"tested_on": "human iPS cells", "experiment": "Evaluation of maintenance of undifferentiated state", "format": "cell-based", "conditions": "for form of the iPS cell colony: FIGS. 3A to 3E, TeSR2, subcultured every six days; for maintenance of the undifferentiated state (NANOG staining): FIGS. 4A to 4E, after culture for 1 month", "experimental": "iPS cells collected in the same manner as in <Cell adhesiveness evaluation 1> were suspended in TeSR2. The iPS cells were seeded into 6-well plate (Tissue culture-treated, Falcon), onto which each of the samples 1, 2, 5, 6, and 7 used in <Cell adhesiveness evaluation 1> was adsorbed in the same manner as in <Cell adhesiveness evaluation 1>, and cultured in a CO2 incubator at 37° C. Except for the day after the seeding, the medium was replaced every day. In the same method as described above, the cells were subcultured every six days. FIGS. 3A to 3E show forms of the iPS cells cultured on each of the samples.\nAfter being cultured for 1 month under the conditions described above, the cells were immobilized using 4% paraformaldehyde and treated with 1% Triton-X/PBS so as to enhance the membrane permeability. After the cells were subjected to a blocking treatment using an Image IT Signal Enhancer (Invitrogen), an anti-human NANOG antibody (AF 1997, R&D Systems, Inc.), an Alexa Fluor 555 binding rabbit anti-goat IgG antibody (Invitrogen), and DAPI (Dojindo Molecular Technologies, Inc.) were added thereto for labeling, and the cells were imaged using a fluorescence microscope. FIGS. 4A to 4E show the fluorescence microscopic images.\nFIGS. 3A and 4A show the iPS cells cultured on RCP-1; FIGS. 3B and 4B show the iPS cells cultured on RCP-11; FIGS. 3C and 4C show the iPS cells cultured on natural human vitronectin; FIGS. 3D and 4D show the iPS cells cultured on rLaminin-5; and FIGS. 3E and 4E show the iPS cells cultured on rLaminin-511. The scale bar in the images indicates 100 μm. In FIGS. 3A to 3E, the images on the left side are full images of the colony, and the images on the right side are magnified images. In FIGS. 4A to 4E, the images on the left side are images of the cells stained with DAPI, and the images on the right side are images of the cells stained with an anti-NANOG antibody. The scale bar in FIGS. 3 and 4 indicates 200 μm."}},
  "data": [
    {"molecule": "RCP-16: recombinant polypeptide, human vitronectin positions 269-459 (protein, Synthetic Peptide RCP-16) GPLGPSQEECEGSSLSAVFEHFAMMQRDSWEDIFELLFWGRTSAGTRQPQFISRDWHGVPGQVDAAMAGRIYISGMAPRPSLAKKQRFRHRNRKGYRSQRGHSRGRNQNSRRPSRATWLSLFSSEESNLGANNYDDYRMDWLVPATCEPIQSVFFFSGDKYYRVNLRTRRVDTVDPPYPRSIAQYWLGCPAPGHL", "values": [
      {"measurement": "adsorbability with respect to the plate (in words)", "setting": "[1]", "result": "excellent adsorbability"}
    ]},
    {"molecule": "RCP-15: recombinant polypeptide, human vitronectin positions 56-459 (protein, Synthetic Peptide RCP-15) GPLGYTVYDDGEEKNNATVHEQVGGPSLTSDLQAQSKGNPEQTPVLKPEEEAPAPEVGASKPEGIDSRPETLHPGRPQPPAEEELCSGKPFDAFTDLKNGSLFAFRGQYCYELDEKAVRPGYPKLIRDVWGIEGPIDAAFTRINCQGKTYLFKGSQYWRFEDGVLDPDYPRNISDGFDGIPDNVDAALALPAHSYSGRERVYFFKGKQYWEYQFQHQPSQEECEGSSLSAVFEHFAMMQRDSWEDIFELLFWGRTSAGTRQPQFISRDWHGVPGQVDAAMAGRIYISGMAPRPSLAKKQRFRHRNRKGYRSQRGHSRGRNQNSRRPSRATWLSLFSSEESNLGANNYDDYRMDWLVPATCEPIQSVFFFSGDKYYRVNLRTRRVDTVDPPYPRSIAQYWLGCPAPGHL", "values": [
      {"measurement": "adsorbability with respect to the plate (in words)", "setting": "[1]", "result": "excellent adsorbability"}
    ]},
    {"molecule": "RCP-11: recombinant polypeptide corresponding to the sequence of natural human vitronectin, positions 1-459 (protein, Synthetic Peptide CRP-11) GPLGDQESCKGRCTEGFNVDKKCQCDELCSYYQSCCTDYTAECKPQVTRGDVFTMPEDEYTVYDDGEEKNNATVHEQVGGPSLTSDLQAQSKGNPEQTPVLKPEEEAPAPEVGASKPEGIDSRPETLHPGRPQPPAEEELCSGKPFDAFTDLKNGSLFAFRGQYCYELDEKAVRPGYPKLIRDVWGIEGPIDAAFTRINCQGKTYLFKGSQYWRFEDGVLDPDYPRNISDGFDGIPDNVDAALALPAHSYSGRERVYFFKGKQYWEYQFQHQPSQEECEGSSLSAVFEHFAMMQRDSWEDIFELLFWGRTSAGTRQPQFISRDWHGVPGQVDAAMAGRIYISGMAPRPSLAKKQRFRHRNRKGYRSQRGHSRGRNQNSRRPSRATWLSLFSSEESNLGANNYDDYRMDWLVPATCEPIQSVFFFSGDKYYRVNLRTRRVDTVDPPYPRSIAQYWLGCPAPGHL", "values": [
      {"measurement": "number of cells on Day 8 of culture relative to the case where RCP-1 was used", "setting": "human iPS cells [2]", "result": "about 1/3"},
      {"measurement": "form of the iPS cell colony", "setting": "human iPS cells [3]", "result": "form specific to undifferentiated cells"},
      {"measurement": "maintenance of the undifferentiated state (NANOG staining)", "setting": "human iPS cells [3]", "result": "strongly expressed NANOG in the entirety of the colony"}
    ]},
    {"molecule": "RCP-1: recombinant polypeptide, human vitronectin positions 1-55 and 269-459, methionine on the N-terminal (protein, Synthetic Peptide RCP-1) MDQESCKGRCTEGFNVDKKCQCDELCSYYQSCCTDYTAECKPQVTRGDVFTMPEDEPSQEECEGSSLSAVFEHFAMMQRDSWEDIFELLFWGRTSAGTRQPQFISRDWHGVPGQVDAAMAGRIYISGMAPRPSLAKKQRFRHRNRKGYRSQRGHSRGRNQNSRRPSRATWLSLFSSEESNLGANNYDDYRMDWLVPATCEPIQSVFFFSGDKYYRVNLRTRRVDTVDPPYPRSIAQYWLGCPAPGHL", "values": [
      {"measurement": "adsorbability with respect to the plate (in words)", "setting": "[1]", "result": "excellent adsorbability"},
      {"measurement": "form of the iPS cell colony", "setting": "human iPS cells [3]", "result": "form specific to undifferentiated cells"},
      {"measurement": "maintenance of the undifferentiated state (NANOG staining)", "setting": "human iPS cells [3]", "result": "strongly expressed NANOG in the entirety of the colony"}
    ]},
    {"molecule": "RCP-13: recombinant polypeptide, human vitronectin positions 1-55, 56-129 (protein, Synthetic Peptide RCP-13) GPLGDQESCKGRCTEGFNVDKKCQCDELCSYYQSCCTDYTAECKPQVTRGDVFTMPEDEYTVYDDGEEKNNATVHEQVGGPSLTSDLQAQSKGNPEQTPVLKPEEEAPAPEVGASKPEGIDSRPETLHPGRPQP", "values": [
      {"measurement": "amount adsorbed onto the plate relative to the polypeptide including SEQ ID NO: 3", "setting": "[1]", "result": "about 1/4"}
    ]}
  ]
}
